Article PMC4351158 (Structure (London, England : 1993), 2015)
Changes are numbered by the printed parent chain. Where no end group is shown, it is not given here. fluorescein = fluorescein, a fluorescent label on the peptide N-terminus

Legend:
Assay in all cases: fluorescence polarisation
[1] = biological target: T1, DegS I232A (E. coli, UniProt P0AEE3 27-355, I232A)
T1 sequence (looked up): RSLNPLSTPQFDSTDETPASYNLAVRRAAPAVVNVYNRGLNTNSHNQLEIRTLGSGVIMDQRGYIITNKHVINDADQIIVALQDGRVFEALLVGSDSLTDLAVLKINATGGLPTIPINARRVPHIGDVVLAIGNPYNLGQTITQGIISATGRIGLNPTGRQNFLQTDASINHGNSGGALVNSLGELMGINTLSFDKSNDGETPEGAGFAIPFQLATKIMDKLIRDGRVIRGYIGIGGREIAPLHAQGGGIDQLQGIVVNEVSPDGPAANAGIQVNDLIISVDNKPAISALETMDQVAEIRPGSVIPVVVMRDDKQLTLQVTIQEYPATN

[2] = biological target: T2, DegS Q187A/H198P (E. coli, UniProt P0AEE3 27-355, Q187A | H198P)
T2 sequence (looked up): T1 sequence (looked up) with Q161A, H172P, A206I

[3] = biological target: T3, DegS N197A/H198P (E. coli, UniProt P0AEE3 27-355, N197A | H198P)
T3 sequence (looked up): T1 sequence (looked up) with N171A, H172P, A206I

[4] = biological target: T4, DegS H198P/E230A (E. coli, UniProt P0AEE3 27-355, H198P | E230A)
T4 sequence (looked up): T1 sequence (looked up) with H172P, E204A, A206I

[5] = biological target: T5, DegS R178A (E. coli, UniProt P0AEE3 27-355, R178A)
T5 sequence (looked up): T1 sequence (looked up) with R152A, A206I

fluorescein-DNRDGNVYYF [fluorescent OMP peptide fluorescein-DNRDGNVYYF]
Kd [1]: 2200 ± 300 nM | Kd [2]: 1500 ± 100 nM | Kd [3]: 700 ± 100 nM | Kd [4]: 1800 ± 400 nM | Kd [5]: 3600 ± 200 nM
